Patent publication US11278600B2, “Human alpha-galactosidase variants” (Codexis, Inc., priority 2014, dated 2022)

Tests used:
Format in all cases: biochemical
[1] = HTP-analysis of yeast culture supernatants, no challenge (MUGal hydrolysis); details: activity of the variant/activity of Rd3BB (SEQ ID NO: 13)
Procedure, shortened: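 Activity read as 4-methylumbelliferyl α-D-galactopyranoside hydrolysis: fluorescence (355/448 nm) after sodium carbonate stop, following 30-180 min at 37° C with 2 mM MUGal stock at pH 4.6–4.8. Enzyme source is unchallenged culture supernatant of INVSc1 yeast expressing GLA variants, grown 66-84 h at 30° C.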

[2] = HTP-analysis of supernatants pretreated with acid (MUGal hydrolysis); details: activity of the variant/activity of Rd3BB (SEQ ID NO: 13); challenge at pH 3.7
Procedure, shortened: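 Supernatants from INVSc1 yeast secreting GLA variants were challenged at 37° C. for 1-3 h in McIlvaine buffer at pH 3.3-4.3. Residual activity was then measured on 4 mM MUGal substrate stock at pH 4.8 with citrate buffer pH 4.3, over 30-180 min at 37° C. Reactions were quenched with sodium carbonate and read by fluorescence (Ex 355/Em 448 nm).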

[3] = HTP-analysis of supernatants pretreated with base (MUGal hydrolysis); details: activity of the variant/activity of Rd3BB (SEQ ID NO: 13); challenge at pH 9.7
Procedure, shortened: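 GLA variants secreted from yeast INVSc1; culture supernatants pre-incubated with McIlvaine buffer pH 7.0–8.2 or 200 mM bicarbonate pH 9.1–9.7 at 37° C. for 1–18 h. Residual activity: MUGal (4 mM stock) hydrolysis at pH 4.3–4.8, 37° C., 30–180 min, carbonate quench; fluorescence Ex 355/Em 448 nm.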

B1: 523 (protein)
chain: LDNGLARTPTMGWLHWERFMCNLDCQEEPDSCISEKLFMEMAERMVSEGWKDAGYEYLCIDDCWMAPQRDSEGRLQADPQRFPHGIRQLAMHVHSKGLKLGIYADVGNKTCAGFPGSFGYYDIDAQTFADWGVDLLKFDGCYCDSLENLADGYKHMSLALNRTGRSIVYSCEWPLYMWPFQKPNYTEIRQYCNHWRNFADIDDSWASIKSILDWTSRNQERIVDVAGPGGWNDPDMLVIGNFGLSWDQQVTQMALWAIMAAPLFMSNDLRHISPQAKALLQDKDVIAINQDPLGKQGYQLRKGDNFEVWERPLSGDAWAVAIINRQEIGGPRSYTIPVASLGKGVACNPACFITQLLPVKRQLGFYNWTSRLKSHINPTGTVLLQLENTMQMSLKDLL
modifications: Synthetic Polypeptide sequence of Variant No. 523 of mature Human GLA
With B1 as the molecule, how does the “Relative Activity of GLA Variants After No Challenge (NC)” value [1] read?
The value was “+ (+ = 1.5 to 5 relative activity over Rd3BB (SEQ ID NO: 13))”.

What about the “Relative Activity of GLA Variants After Challenge at pH 3.7” value (from here on “Relative Activity … at pH 3.7”) [2] of the same molecule?
Its value is “+ (+ = 1.5 to 5 relative activity over Rd3BB (SEQ ID NO: 13))”.

What about the “Relative Activity of GLA Variants After Challenge at pH 9.7” value (“Relative Activity … at pH 9.7” below) [3] of the same molecule?
Its value is “+ (+ = 1.5 to 5 relative activity over Rd3BB (SEQ ID NO: 13))”.

B2: 524 (protein)
chain: LDNGLARTPTMGWLHWERFMCNLDCQEEPDSCISEKLFMEMAERMVSEGWKDAGYEYLCIDDCWMAPQRDSEGRLQADPQRFPHGIRQLAVHVHSKGLKLGIYADVGNKTCAGFPGSFGYYDIDAQTFADWGVDLLKFDGCYCDSLENLADGYKHMSLALNRTGRSIVYSCEWPLYMWPFQKPNYTEIRQYCNHWRNFADIDDSWASIKSILDWTSRNQERIVDVAGPGGWNDPDMLVIGNFGLSWDQQVTQMALWAIMAAPLFMSNDLRHISPQAKALLQDKDVIAINQDPLGKQGYQLRKGDNFEVWERPLSGDAWAVAIINRQEIGGPRSYTIPVASLGKGVACNPACFITQLLPVKRQLGFYNWTSRLKSHINPTGTVLLQLENTMQMSLKDLL
modifications: Synthetic Polypeptide sequence of Variant No. 524 of mature Human GLA
What does the source list for B2?
Relative Activity of GLA Variants After No Challenge (NC) [1]: − (− = <1.5 relative activity to Rd3BB (SEQ ID NO: 13)); Relative Activity of GLA Variants After Challenge at pH 3.7 [2]: + (+ = 1.5 to 5 relative activity over Rd3BB (SEQ ID NO: 13)); Relative Activity of GLA Variants After Challenge at pH 9.7 [3]: + (+ = 1.5 to 5 relative activity over Rd3BB (SEQ ID NO: 13))

B3: 525 (protein)
chain: LDNGLARTPTMGWLHWERFMCNLDCQEEPDSCISEKLFMEMAERMVSEGWKDAGYEYLCIDDCWMAPQRDSEGRLHADPQRFPHGIRQLANHVHSKGLKLGIYADVGNKTCAGFPGSFGYYDIDAQTFADWGVDLLKFDGCYCDSLENLADGYKHMSLALNRTGRSIVYSCEWPLYMWPFQKPNYTEIRQYCNHWRNFADIDDSWASIKSILDWTSRNQERIVDVAGPGGWNDPDMLVIGNFGLSWDQQVTQMALWAIMAAPLFMSNDLRHISPQAKALLQDKDVIAINQDPLGKQGYQLRKGDNFEVWERPLSGDAWAVAIINRQEIGGPRSYTIPVASLGKGVACNPACFITQLLPVKRQLGFYNATSRLKSHINPTGTVLLQLENTMQMSLKDLL
modifications: Synthetic Polypeptide sequence of Variant No. 525 of mature Human GLA
For B3, which “Relative Activity of GLA Variants After No Challenge (NC)” value [1] is on record?
Its value is “+ (+ = 1.5 to 5 relative activity over Rd3BB (SEQ ID NO: 13))”.

And the “Relative Activity … at pH 3.7” value [2]?
Its value is “++ (++ = >5 to 10 relative activity over Rd3BB (SEQ ID NO: 13))”.

And the “Relative Activity … at pH 9.7” value [3]?
Its value is “++ (++ = >5 to 10 relative activity over Rd3BB (SEQ ID NO: 13))”.

B4: 526 (protein)
chain: LDNGLARTPTMGWLHWERFMCNLDCQEEPDSCISEKLFMEMAERMVSEGWKDAGYEYLCIDDCWMAPQRDSEGHLQADPQRFPHGIRQLANHVHSKGLKLGIYADVGNKTCAGFPGSFGYYDIDAQTFADWGVDLLKFDGCYCDSLENLADGYKHMSLALNRTGRSIVYSCEWPLYMWPFQKPNYTEIRQYCNHWRNFADIDDSWASIKSILDWTSRNQERIVDVAGPGGWNDPDMLVIGNFGLSWDQQVTQMALWAIMAAPLFMSNDLRHISPQAKALLQDKDVIAINQDPLGKQGYQLRKGDNFEVWERPLSGDAWAVAIINRQEIGGPRSYTIPVASLGKGVACNPACFITQLLPVKRQLGFYNWTSRLKSHINPTGTVLLQLENTMQMSLKDLL
modifications: Synthetic Polypeptide sequence of Variant No. 526 of mature Human GLA
What does the source list for B4?
Relative Activity of GLA Variants After No Challenge (NC) [1]: + (+ = 1.5 to 5 relative activity over Rd3BB (SEQ ID NO: 13)); Relative Activity of GLA Variants After Challenge at pH 3.7 [2]: + (+ = 1.5 to 5 relative activity over Rd3BB (SEQ ID NO: 13)); Relative Activity of GLA Variants After Challenge at pH 9.7 [3]: ++ (++ = >5 to 10 relative activity over Rd3BB (SEQ ID NO: 13))

B5: 527 (protein)
chain: LDNGLARTPTMGWLHWERFMCNLDCQEEPDSCISEKLFMEMAERMVSEGWKDAGYEYLCIDDCWMAPQRDSEGRLQADPQRFPHGIRQLANEVHSKGLKLGIYADVGNKTCAGFPGSFGYYDIDAQTFADWGVDLLKFDGCYCDSLENLADGYKHMSLALNRTGRSIVYSCEWPLYMWPFQKPNYTEIRQYCNHWRNFADIDDSWASIKSILDWTSRNQERIVDVAGPGGWNDPDMLVIGNFGLSWDQQVTQMALWAIMAAPLFMSNDLRHISPQAKALLQDKDVIAINQDPLGKQGYQLRKGDNFEVWERPLSGDAWAVAIINRQEIGGPRSYTIPVASLGKGVACNPACFITQLLPVKRQLGFYNWTSRLKSHINPTGTVLLQLENTMQMSLKDLL
modifications: Synthetic Polypeptide sequence of Variant No. 527 of mature Human GLA
Which results are given for B5?
Relative Activity of GLA Variants After No Challenge (NC) [1]: + (+ = 1.5 to 5 relative activity over Rd3BB (SEQ ID NO: 13)); Relative Activity of GLA Variants After Challenge at pH 3.7 [2]: + (+ = 1.5 to 5 relative activity over Rd3BB (SEQ ID NO: 13)); Relative Activity of GLA Variants After Challenge at pH 9.7 [3]: ++ (++ = >5 to 10 relative activity over Rd3BB (SEQ ID NO: 13))

B6: 528 (protein)
chain: LDNGLARTPTMGWLHWERFMCNLDCQEEPDSCISEKLFMEMAERMVSEGWKDAGYEYLCIDDCWMAPQRDSEGRLQADPQRFPHGIRQLANHVHSKGLKLGIYADVGNKTCAGFPGSFGYYDIDAQTFAQWGVDLLKFDGCYCDSLENLADGYKHMSLALNRTGRSIVYSCEWPLYMWPFQKPNYTEIRQYCNHWRNFADIDDSWASIKSILDWTSRNQERIVDVAGPGGWNDPDMLVIGNFGLSWDQQVTQMALWAIMAAPLFMSNDLRHISPQAKALLQDKDVIAINQDPLGKQGYQLRKGDNFEVWERPLSGDAWAVAIINRQEIGGPRSYTIPVASLGKGVACNPACFITQLLPVKRQLGFYNWTSRLKSHINPTGTVLLQLENTMQMSLKDLL
modifications: Synthetic Polypeptide sequence of Variant No. 528 of mature Human GLA
Which “Relative Activity of GLA Variants After No Challenge (NC)” value [1] does the source give for B6 here?
The value was “+ (+ = 1.5 to 5 relative activity over Rd3BB (SEQ ID NO: 13))”.

And the “Relative Activity … at pH 3.7” value [2]?
The value was “+ (+ = 1.5 to 5 relative activity over Rd3BB (SEQ ID NO: 13))”.

What about the “Relative Activity … at pH 9.7” value [3] of the same molecule?
The value was “++ (++ = >5 to 10 relative activity over Rd3BB (SEQ ID NO: 13))”.

B7: 529 (protein)
chain: LDNGLARTPTMGWLHWERFMCNLDCQEEPDSCISEKLFMEMAERMVSEGWKDAGYEYLCIDDCWMAPQRDSEGRLQADPQRFPHGIRQLANHVHSKGLKLGIYADVGNKTCAGFPGSFGYYDIDAQTFADWGVDLLKFDGCYCDSLENLADGYKHMSLALNRTGRSIVYSCEWPLYMWPFQAPNYTEIRQYCNHWRNFADIDDSWASIKSILDWTSRNQERIVDVAGPGGWNDPDMLVIGNFGLSWDQQVTQMALWAIMAAPLFMSNDLRHISPQAKALLQDKDVIAINQDPLGKQGYQLRKGDNFEVWERPLSGDAWAVAIINRQEIGGPRSYTIPVASLGKGVACNPACFITQLLPVKRQLGFYNWTSRLKSHINPTGTVLLQLENTMQMSLKDLL
modifications: Synthetic Polypeptide sequence of Variant No. 529 of mature Human GLA
With B7 as the molecule, how does the “Relative Activity of GLA Variants After No Challenge (NC)” value [1] read?
The value was “+ (+ = 1.5 to 5 relative activity over Rd3BB (SEQ ID NO: 13))”.

And the “Relative Activity … at pH 3.7” value [2]?
Its value is “+ (+ = 1.5 to 5 relative activity over Rd3BB (SEQ ID NO: 13))”.

And the “Relative Activity … at pH 9.7” value [3]?
Its value is “++ (++ = >5 to 10 relative activity over Rd3BB (SEQ ID NO: 13))”.

B8: 530 (protein)
chain: LDNGLARTPTMGWLHWERFMCNLDCQEEPDSCISEKLFMEMAERMVSEGWKDAGYEYLCIDDCWMAPQRDSEGRLQADPQRFPHGIRQLANHVHSKGLKLGIYADVGNKTCAGFPGSFGYYDIDAQTFADWGVDLLKFDGCYCDSLENLADGYKHMSLALNRTGRSIVYSCEWPLYMWPFQEPNYTEIRQYCNHWRNFADIDDSWASIKSILDWTSRNQERIVDVAGPGGWNDPDMLVIGNFGLSWDQQVTQMALWAIMAAPLFMSNDLRHISPQAKALLQDKDVIAINQDPLGKQGYQLRKGDNFEVWERPLSGDAWAVAIINRQEIGGPRSYTIPVASLGKGVACNPACFITQLLPVKRQLGFYNWTSRLKSHINPTGTVLLQLENTMQMSLKDLL
modifications: Synthetic Polypeptide sequence of Variant No. 530 of mature Human GLA
With B8 as the molecule, how does the “Relative Activity of GLA Variants After No Challenge (NC)” value [1] read?
Its value is “+ (+ = 1.5 to 5 relative activity over Rd3BB (SEQ ID NO: 13))”.

What about the “Relative Activity … at pH 3.7” value [2] of the same molecule?
The value was “+ (+ = 1.5 to 5 relative activity over Rd3BB (SEQ ID NO: 13))”.

And the “Relative Activity … at pH 9.7” value [3]?
Its value is “++ (++ = >5 to 10 relative activity over Rd3BB (SEQ ID NO: 13))”.
